Columns and labels:
Test in all cases: EMSA
Settings in all cases: EMSA: 10 mM Tris-HCl pH 7.5, 1 mM EDTA, 100 mM KCl, 0.1 mM DTT, 5% glycerol, 0.01 mg/mL BSA, 20 nM RNA, room temperature, 1 h; pull-down: RNA folded in 100 mM …
[1] = tested on: NCL* (PRMT1-methylated recombinant NCL) (Homo sapiens)
[2] = tested on: RGG* methylated peptide (Homo sapiens)
[3] = tested on: recombinant NCL (Homo sapiens)
[4] = tested on: RGG peptide (Homo sapiens)

Substance EBNA1 has a Kd [1] of 202 nM, a Kd [2] of 0.107 nM and a Kd [3] of 306 nM. For the same substance, the Kd [4] was 0.154 nM.
